Source: article PMC5067715, “Structural characterization of the circadian clock protein complex composed of KaiB and KaiC by inverse contrast-matching small-angle neutron scattering” (Scientific Reports, 2016)
Residue numbers refer to the chain shown, from its start.

T1: wild-type KaiC (Synechococcus elongatus PCC 7942, UniProt Q79PF4 1-519)
T1 construct: KaiC, circadian clock protein of Synechococcus elongatus PCC 7942; also called KaiCWT; source: Escherichia coli, Strep-tagged recombinant protein, purified
T1 sequence (looked up): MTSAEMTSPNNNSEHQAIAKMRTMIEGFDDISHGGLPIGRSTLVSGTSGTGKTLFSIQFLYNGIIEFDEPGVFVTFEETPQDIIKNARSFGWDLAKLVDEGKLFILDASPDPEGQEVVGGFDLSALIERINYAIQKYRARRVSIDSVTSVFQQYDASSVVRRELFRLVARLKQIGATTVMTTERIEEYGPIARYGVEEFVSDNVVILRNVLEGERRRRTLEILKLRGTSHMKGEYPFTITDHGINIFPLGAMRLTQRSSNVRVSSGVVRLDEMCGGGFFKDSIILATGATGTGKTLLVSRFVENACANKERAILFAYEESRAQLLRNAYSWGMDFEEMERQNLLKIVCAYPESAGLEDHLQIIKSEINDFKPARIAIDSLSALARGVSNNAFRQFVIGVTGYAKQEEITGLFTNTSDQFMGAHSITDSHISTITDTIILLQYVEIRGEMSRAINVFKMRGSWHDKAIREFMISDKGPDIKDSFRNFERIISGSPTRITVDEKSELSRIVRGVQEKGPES

T2: KaiCDE (KaiC mutant with aspartate and glutamate residues at positions 431 and 432) (Synechococcus elongatus PCC 7942, UniProt Q79PF4 1-519, aspartate at position 431 | glutamate at position 432)
T2 construct: KaiC, circadian clock protein of Synechococcus elongatus PCC 7942, mimic of hyperphosphorylated KaiC; source: Escherichia coli, Strep-tagged recombinant protein, purified
T2 sequence (looked up): T1 sequence (looked up) with S431D, T432E

B1: KaiCDT (KaiC phospho-mimicking mutant with aspartate at Ser431) (natural protein, Synechococcus elongatus PCC 7942, UniProt Q79PF4 1-519, looked up)
chain: T1 sequence (looked up) with S431D
notes: KaiC, circadian clock protein of Synechococcus elongatus PCC 7942, mono-phosphorylation mimic at Ser431; 72d-KaiCDT is the same protein, 72.2% deuterated, used in iCM-SANS; Printed mass of KaiC 65 kDa; also called h-KaiCDT; 72d-KaiCDT
B2: KaiB (natural protein, Synechococcus elongatus PCC 7942, UniProt Q79PF5 1-102, looked up)
chain: MSPRKTYILKLYVAGNTPNSVRALKTLKNILEVEFQGVYALKVIDVLKNPQLAEEDKILATPTLAKVLPLPVRRIIGDLSDREKVLIGLDLLYGELQDSDDF
notes: KaiB, circadian clock protein of Synechococcus elongatus PCC 7942; printed mass of KaiB 14 kDa; Six KaiB protomers stand in the complex with the KaiC hexamer; also called h-KaiB; source: Escherichia coli, Strep-tagged recombinant protein, purified

Assays:
[1] = molecular target: the molecule itself; assay: native MS; nanoflow ESI-MS under non-denaturing conditions; 20 uM KaiCDT mixed with 3.3, 10, 20 and 30 uM KaiB (monomer), 30 °C for 4 h, exchanged into 150 mM ammonium acetate pH 7.5
wild-type KaiC = molecular target: T1, wild-type KaiC; assay: native gel or EMSA; BN-PAGE (NativePAGE Novex Bis-Tris gel); KaiC variants incubated with KaiB at 30 °C for 12 h; conditions: both partners purified
[2] = molecular target: T2, KaiCDE (KaiC mutant with aspartate and …); assay: as above; conditions: both partners purified
[3] = molecular target: B1; assay: native MS; nanoflow ESI-MS under non-denaturing conditions; 20 uM KaiCDT mixed with 3.3, 10, 20 and 30 uM KaiB (monomer), 30 °C for 4 h, exchanged into 150 mM ammonium acetate pH 7.5; conditions: both partners purified

Row | binding result (wild-type KaiC) | binding result [2] | stoichiometry N [3] | Binder | stoichiometry N [1]
1 |  |  |  | B1 | 6
2 | binds | binds | 6 KaiB protomers per KaiC hexamer | B2 | 
